Test results from article PMC9949253.

Biological target: BTN3A1 full intracellular domain (BFI) (human)
Assay: ITC; 300 μM BTN2A1 ID271 titrated into a mixture of 60 μM BTN3A1 BFI and 120 μM 4-M-HMBPP; nanoITC, independent fit (NanoAnalyze)

KD with 4-M-HMBPP: 190 µM | N with 4-M-HMBPP: 0.08 | dH with 4-M-HMBPP: -100 kJ/mol
Substance: BTN2A1 intracellular domain (ID271) (domain or fragment)
